Data from patent publication US8629241B2, “Alpha helical mimics, their uses and methods for their production” (The University of Queensland, priority 2004, dated 2014).
Read-outs that look alike come from different tables or passages of the source. Where a SMILES comes first, the peptide text is derived from it. Bridges are numbered along the chain shown (N, C = ends). [ ]: non-standard residue; d: D form. Orn = NCCC[C@H](N)C(=O)O

Assay type: physicochemical
Conditions: for percentage helicities: equation 2b with k˜4, assuming 8 has 100% helicity; for [θ]207: molar elipticity at 207 nm
Method: Circular Dichroism (CD) was performed on peptides having SEQ ID NOs: 8 to 14 and 18 to 31, using methods described above. The molar elipticities at 222 nm, 208 nm and 190 nm, ratios of elipticities at 222 nm/208 nm and relative helicity are shown in Tables 6 and 7.
Assuming that mean alpha helix content (fH) is linearly related to elipticity at 222 nm, or in our case 215 nm ([θ]obs215), then the equation for calculating helix content is: fH=([θ]obs215−[θ]C)/([θ]∞215−[θ]C) (1) Luo and Baldwin^22 determined that the random coil ([θ]C) and infinite alpha helix ([θ]∞222) molar elipticities are temperature dependent based on the equations: [θ]C=2220−53T (2a) [θ]∞215=(−44000+250T)(1−k/Np) (2b) where T is temperature in degrees Celsius, Np is the number of peptide units, and k is a finite length correction.
CD was performed on peptides having one [SEQ ID NO: 8] or more than one modular macrocycle [SEQ ID NOs: 46 and 47], as compared with corresponding linear peptides, Ac[KARAD]n—NH2 where n=1 [SEQ ID NO: 14], n=2 [SEQ ID NO: 54] and n=3 [SEQ ID NO: 55]. The molar elipticities at 222 nm, 208 nm and 190 nm, ratios of elipticities at 222 nm/208 nm and percentage helicity are shown in Table 8.
CD experiments were performed on a Jasco Model J-710 spectropolarimeter which was routinely calibrated with (1S)-(+)-10-camphorsulfonic acid. Temperature control was achieved using a Neslab RTE-111 circulating water bath. Spectra were recorded in a 0.1 cm Jasco cell between 310-185 nm at 50 nm/min with a band width of 1.0 nm, response time of 2 sec, resolution step width of 0.1 nm and sensitivity of 20, 50 or 100 mdeg. Each spectrum represents the average of 5 scans with smoothing to reduce noise. Peptide samples for CD spectroscopy were dissolved in distilled water (˜1 mg/mL). Each stock solution was diluted to a final concentration of 50 μM in 10 mM sodium phosphate buffer (pH7.4), with or without additives (2,2,2-trifluoroethanol (TFE) or guanidine.HCl). Guanidine.HCl denaturation experiments were performed according to Creighton^105.
1D ^1H NMR spectra were then recorded with presaturation and a relaxation delay (d1) of 30 seconds to allow for full relaxation of peptide and DSS^1H signals to facilitate accurate integration of proton signals with S/N>250:1. This method provides reproducible concentrations within ±2%.
CD data in ellipticity was converted to mean peptide ellipticity using the equation: [θ]=θ/(10×C×Np×1) where θ is the ellipticity in millidegrees, C is the peptide molar concentration (M), 1 is the cell path length (cm), and Np is the number of peptide units (ie. pentapeptides […], 10 & 11 Np=5, 12 Np=4.)
Relative helicities were employed to allow scaling of compounds by dividing the [θ]obs215(8)/[θ]obs215(x) for pentapeptides, and [θ]obs215(24)/[θ]obs215(x) for hexapeptides.

[1] = cyclic hexapeptides 23-31, 10 mM phosphate buffer pH 7.4 at 25° C
[2] = θ215 relative to SEQ ID NO: 24, 10 mM phosphate buffer pH 7.4 at 25° C
[3] = [θ]215 relative to SEQ ID NO: 8, 10 mM phosphate buffer, pH 7.4, 25° C
[4] = molar elipticity at 190 nm, 10 mM phosphate buffer, pH 7.4, 25° C
[5] = 10 mM phosphate buffer, pH 7.4, 25° C
[6] = molar elipticity at 215 nm, 10 mM phosphate buffer, pH 7.4, 25° C
[7] = ratio of elipticities, 10 mM phosphate buffer, pH 7.4, 25° C
[8] = Table 8, one or more cyclic pentapeptide modules versus linear peptides

Compound | Molar ellipticity at 207 nm [1] | [θ]190 [1] | [θ]215 [1] | θ215/θ207 [1] | percentage helicities [%] | Relative helicity [2] | Relative helicity [3] | [θ]190 [4] | [θ]207 [5] | [θ]215 [6] | θ215/θ207 [7] | further results
Ac-(cyclo-2,6)-R[KAMAD]-NH2 (Ac-RKAMAD-NH2; lactam 2-6; SMILES CSCC[C@@H]1NC(=O)[C@H](C)NC(=O)[C@@H](NC(=O)[C@H](CCCNC(=N)N)NC(C)=O)CCCCNC(=O)C[C@@H](C(N)=O)NC(=O)[C@H](C)NC1=O) [SEQ ID NO: 25] | −12296 deg.cm^2.dmol^−1.residue^−1 | 38464 deg.cm^2.dmol^−1.residue^−1 | −11853 deg.cm^2.dmol^−1.residue^−1 | 0.96 | 73 | 0.80 |  |  |  |  |  | 
Ac-(cyclo-1,5)-[KARAE]-NH2 (Ac-KARAE-NH2; lactam 1-5; SMILES CC(=O)N[C@H]1CCCCNC(=O)CC[C@@H](C(N)=O)NC(=O)[C@H](C)NC(=O)[C@H](CCCNC(=N)N)NC(=O)[C@H](C)NC1=O) [SEQ ID NO: 10] |  |  |  |  |  |  | 0.08 | −10611 deg.cm^2.dmol^−1.residue^−1 | −3393 deg.cm^2.dmol^−1.residue^−1 | −1068 deg.cm^2.dmol^−1.residue^−1 | 0.31 | 
Cyclo(6-10, 11-15)-FGGFT[KARKD][KRKLD]-NH2 (FGGFTKARKDKRKLD; bicyclic lactam bridges, C-terminal amide) [SEQ ID NO: 76] |  |  |  |  |  |  |  |  |  |  |  | helicity by CD compared to native agonist and antagonist sequences (versus F/Nphe-[…], FIG. 12): increase helicity
Ac-(cyclo-2,6)-R[KGSAD]-NH2 (Ac-RKGSAD-NH2; lactam 2-6; SMILES CC(=O)N[C@@H](CCCNC(=N)N)C(=O)N[C@H]1CCCCNC(=O)C[C@@H](C(N)=O)NC(=O)[C@H](C)NC(=O)[C@H](CO)NC(=O)CNC1=O) [SEQ ID NO: 29] | −6975 deg.cm^2.dmol^−1.residue^−1 | 12831 deg.cm^2.dmol^−1.residue^−1 | −4810 deg.cm^2.dmol^−1.residue^−1 | 0.69 |  | 0.32 |  |  |  |  |  | 
Ac-(cyclo-1,5)-[EARAK]-NH2 (Ac-EARAK-NH2; lactam 1-5; SMILES CC(=O)N[C@H]1CCC(=O)NCCCC[C@@H](C(N)=O)NC(=O)[C@H](C)NC(=O)[C@H](CCCNC(=N)N)NC(=O)[C@H](C)NC1=O) [SEQ ID NO: 11] |  |  |  |  |  |  | 0.58 | 20735 deg.cm^2.dmol^−1.residue^−1 | −12803 deg.cm^2.dmol^−1.residue^−1 | −7430 deg.cm^2.dmol^−1.residue^−1 | 0.58 | 
CC(=O)N[C@@H](CCCCN)C(=O)N[C@@H](C)C(=O)N[C@@H](CCCNC(=N)N)C(=O)N[C@@H](C)C(=O)N[C@@H](CC(=O)O)C(=O)N[C@@H](CCCCN)C(=O)N[C@@H](C)C(=O)N[C@@H](CCCNC(=N)N)C(=O)N[C@@H](C)C(=O)N[C@@H](CC(=O)O)C(N)=O [SEQ ID NO: 54] (Ac-KARADKARAD-NH2) |  |  |  |  |  |  |  |  |  |  |  | θ222/θ208 (Table 8): 0.21; [θ]192 [8]: −12237 degcm^2dmol^−1residue^−1; [θ]208 [8]: −8552 degcm^2dmol^−1residue^−1; [θ]222 [8]: −1836 degcm^2dmol^−1residue^−1; % helicity (fH × 100, [θ∞H]222 = −44000, k = 2.6): 3%
H-(cyclo-1,5)-[KARAD]-NH2 (H-KARAD-NH2; lactam 1-5; SMILES C[C@@H]1NC(=O)[C@H](CCCNC(=N)N)NC(=O)[C@H](C)NC(=O)[C@@H](N)CCCCNC(=O)C[C@@H](C(N)=O)NC1=O) [SEQ ID NO: 21] |  |  |  |  |  |  | 0.06 | 1355 deg.cm^2.dmol^−1.residue^−1 | −2228 deg.cm^2.dmol^−1.residue^−1 | −812 deg.cm^2.dmol^−1.residue^−1 | 0.36 | Relative helicity ([θ]215 relative to SEQ ID NO: 8, in 0.001 M NaOH pH 10): 0.2; [θ]190 (molar elipticity at 190 nm, in 0.001 M NaOH pH 10): 8452 deg.cm^2.dmol^−1.residue^−1; [θ]207 (in 0.001 M NaOH pH 10): −3327 deg.cm^2.dmol^−1.residue^−1; [θ]215 (molar elipticity at 215 nm, in 0.001 M NaOH pH 10): −2590 deg.cm^2.dmol^−1.residue^−1; θ215/θ207 (ratio of elipticities, in 0.001 M NaOH pH 10): 0.78
Ac-(cyclo-1,5)-[EARAO]-NH2 (Ac-EARA[Orn]-NH2; lactam 1-5; SMILES CC(=O)N[C@H]1CCC(=O)NCCC[C@@H](C(N)=O)NC(=O)[C@H](C)NC(=O)[C@H](CCCNC(=N)N)NC(=O)[C@H](C)NC1=O) [SEQ ID NO: 19] |  |  |  |  |  |  | 0 | −11256 deg.cm^2.dmol^−1.residue^−1 | −1917 deg.cm^2.dmol^−1.residue^−1 | 2442 deg.cm^2.dmol^−1.residue^−1 | −1.27 | 
Ac-(cyclo-2,6)-R[KAFAD]-NH2 (Ac-RKAFAD-NH2; lactam 2-6; SMILES CC(=O)N[C@@H](CCCNC(=N)N)C(=O)N[C@H]1CCCCNC(=O)C[C@@H](C(N)=O)NC(=O)[C@H](C)NC(=O)[C@H](Cc2ccccc2)NC(=O)[C@H](C)NC1=O) [SEQ ID NO: 27] | −9087 deg.cm^2.dmol^−1.residue^−1 | 27718 deg.cm^2.dmol^−1.residue^−1 | −8644 deg.cm^2.dmol^−1.residue^−1 | 0.95 | 53 | 0.76 |  |  |  |  |  | 
Ac-(cyclo-2,6)-R[KALAD]-NH2 (Ac-RKALAD-NH2; lactam 2-6; SMILES CC(=O)N[C@@H](CCCNC(=N)N)C(=O)N[C@H]1CCCCNC(=O)C[C@@H](C(N)=O)NC(=O)[C@H](C)NC(=O)[C@H](CC(C)C)NC(=O)[C@H](C)NC1=O) [SEQ ID NO: 24] | −15165 deg.cm^2.dmol^−1.residue^−1 | 46621 deg.cm^2.dmol^−1.residue^−1 | −14798 deg.cm^2.dmol^−1.residue^−1 | 0.98 | 91 | 1.00 |  |  |  |  |  | 
Ac-(cyclo-2,6)-R[KGGGD]-NH2 (Ac-RKGGGD-NH2; lactam 2-6; SMILES CC(=O)N[C@@H](CCCNC(=N)N)C(=O)N[C@H]1CCCCNC(=O)C[C@@H](C(N)=O)NC(=O)CNC(=O)CNC(=O)CNC1=O) [SEQ ID NO: 31] | −4868 deg.cm^2.dmol^−1.residue^−1 | −1593 deg.cm^2.dmol^−1.residue^−1 | −2131 deg.cm^2.dmol^−1.residue^−1 | 0.44 |  | 0.14 |  |  |  |  |  | 
Ac-(cyclo-1,5)-[OARAE]-NH2 (Ac-[Orn]ARAE-NH2; lactam 1-5; SMILES CC(=O)N[C@H]1CCCNC(=O)CC[C@@H](C(N)=O)NC(=O)[C@H](C)NC(=O)[C@H](CCCNC(=N)N)NC(=O)[C@H](C)NC1=O) [SEQ ID NO: 18] |  |  |  |  |  |  | 0 | −16228 deg.cm^2.dmol^−1.residue^−1 | −3368 deg.cm^2.dmol^−1.residue^−1 | 741 deg.cm^2.dmol^−1.residue^−1 | −0.22 | 
Ac-(cyclo-2,6)-R[KAAAD]-NH2 (Ac-RKAAAD-NH2; lactam 2-6; SMILES CC(=O)N[C@@H](CCCNC(=N)N)C(=O)N[C@H]1CCCCNC(=O)C[C@@H](C(N)=O)NC(=O)[C@H](C)NC(=O)[C@H](C)NC(=O)[C@H](C)NC1=O) [SEQ ID NO: 23] | −13684 deg.cm^2.dmol^−1.residue^−1 | 39352 deg.cm^2.dmol^−1.residue^−1 | −13537 deg.cm^2.dmol^−1.residue^−1 | 0.99 | 83 | 0.91 |  |  |  |  |  | 
